Among the data in PMC8443706, “Functionally diverse heteromeric traps for ligands of the transforming growth factor-β superfamily” (Scientific Reports, 2021) are Kd, koff and kon values, retold here.

Sequences and labels used below:
B4: BMP6 (ligand, human, UniProt P22004 375-513, looked up)
chain: SASSRRRQQSRNRSTQSQDVARVSSASDYNSSELKTACRKHELYVSFQDLGWQDWIIAPKGYAANYCDGECSFPLNAHMNATNHAIVQTLVHLMNPEYVPKPCCAPTKLNAISVLYFDDNSNVILKKYRNMVVRACGCH
notes: source: bought: R&D Systems

Holding throughout (conditions): both partners purified
Experiment [1] has as its target T1, IIB-Fc:ALK4-Fc heterodimer (human ActRIIB ECD-Fc paired with human ALK4 ECD-Fc) (human, UniProt Q13705-1 19-134; P36896-1 24-126).
T1 construct: activin receptor type IIB (ActRIIB) extracellular domain, human, aa 19-134 of NP_001097.2; copies: 1 + 1
Nature of the experiment: SPR; Biacore 8K, 37 °C; Fc-fusion receptor dimers captured by anti-human Fc antibody on a CM5 chip (100-150 RU); ligands injected in two-fold dilution series (300 s association, 600 s dissociation); HBS-EP+ supplemented with 350 mM NaCl and 0.5 mg/mL BSA; 1:1 Langmuir model with a term for mass transport. (Surface plasmon resonance follows binding to a sensor surface in real time, without labels.)

For experiment [2], the target named is T2, IIB-Fc:IIB-Fc homodimer (human ActRIIB ECD fused to human IgG1 Fc) (human, UniProt Q13705-1 19-134).
T2 construct: activin receptor type IIB (ActRIIB) extracellular domain, human, aa 19-134 of NP_001097.2; Chains linked by disulfide bonds between the Fc domains; a form with murine IgG2a Fc was used only in mice; also called ActRIIB-Fc homodimer; ActRIIB-Fc; not shown: Fc (human IgG1), C-terminal, kept
T2 sequence (Q13705 19-134): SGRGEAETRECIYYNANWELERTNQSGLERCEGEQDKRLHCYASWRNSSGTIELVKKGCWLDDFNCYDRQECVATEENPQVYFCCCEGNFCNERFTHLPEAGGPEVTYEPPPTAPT
The description is as above.

The target of experiment [3] is T3, IIB-Fc:ALK7-Fc heterodimer (human ActRIIB ECD-Fc paired with human ALK7 ECD-Fc) (human, UniProt Q13705-1 19-134; Q8NER5-1 25-113).
T3 construct: activin receptor type IIB (ActRIIB) extracellular domain, human, aa 19-134 of NP_001097.2; activin receptor-like kinase 7 (ALK7) extracellular domain, human, aa 25-113 of NP_660302.2; copies: 1 + 1
T3 sequence (Q13705 19-134, chain 1 of 2): as the sequence (Q13705 19-134) above
T3 sequence (Q8NER5 25-113, chain 2 of 2): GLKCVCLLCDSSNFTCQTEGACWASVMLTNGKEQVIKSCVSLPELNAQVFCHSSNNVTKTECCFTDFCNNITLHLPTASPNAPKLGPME
Nature of the experiment: SPR; same experiment as a1 (Biacore 8K, 37 °C, receptor dimers captured by anti-human Fc, HBS-EP+ with 350 mM NaCl added and 0.5 mg/mL BSA) but fitted with a bivalent analyte model (bold cells of Table 1); the first binding step is the one considered.

Experiment [4] has as its target T4, IIB-Fc:ALK3-Fc heterodimer (human ActRIIB ECD-Fc paired with human ALK3 ECD-Fc) (human, UniProt Q13705-1 19-134; P36894 24-152).
T4 construct: activin receptor type IIB (ActRIIB) extracellular domain, human, aa 19-134 of NP_001097.2; copies: 1 + 1
Described as above.

In experiment [5] the target is T1, IIB-Fc:ALK4-Fc heterodimer (human …). The experiment is described as above.
For experiment [6], the target named is T3, IIB-Fc:ALK7-Fc heterodimer (human …). The experiment can be described thus: SPR; Biacore 8K, 37 °C; Fc-fusion receptor dimers captured by anti-human Fc antibody on a CM5 chip (100-150 RU); ligands injected in two-fold dilution series (300 s association, 600 s dissociation); HBS-EP+ supplemented with 350 mM NaCl and 0.5 mg/mL BSA; 1:1 Langmuir model with a term for mass transport.

Experiment [7] addresses T4, IIB-Fc:ALK3-Fc heterodimer (human …). Described as above.
The experiment “BMP6” deals with B4. The description is as above.

T1 sequence (Q13705 19-134, chain 1 of 2): as the sequence (Q13705 19-134) above
T1 sequence (P36896 24-126, chain 2 of 2): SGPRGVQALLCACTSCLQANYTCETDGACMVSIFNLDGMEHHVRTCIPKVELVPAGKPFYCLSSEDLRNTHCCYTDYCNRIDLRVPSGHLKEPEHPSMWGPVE

B1: activin A (ligand, human, UniProt P08476 311-426, looked up)
chain: GLECDGKVNICCKKQFFVSFKDIGWNDWIIAPSGYHANYCEGECPSHIAGTSGSSLSFHSTVINHYRMRGHSPFANLKSCCVPTKLRPMSMLYYDDGQNIIKKDIQNMIVEECGCS
notes: source: generated in house
Turning to B1, the Kd in experiment [1] amounted to 0.0184 nM; in experiment [2] it was 0.0109 nM; in experiment [3] it was 0.41 nM; in experiment [4], 0.164 nM. For the same molecule, the dissociation rate constant (koff) in experiment [1] is 0.000139 s⁻¹; in experiment [2], 8.45e-05 s⁻¹; in experiment [3], 0.00815 s⁻¹; in experiment [4], 0.00733 s⁻¹. In addition, the kon in experiment [1] is 7.4e+06 M⁻¹ s⁻¹; in experiment [2], 7.8e+06 M⁻¹ s⁻¹; in experiment [3], 2e+07 M⁻¹ s⁻¹; in experiment [4], 4.47e+07 M⁻¹ s⁻¹.

B2: BMP9 (ligand, human, UniProt Q9UK05 320-429, looked up)
chain: SAGAGSHCQKTSLRVNFEDIGWDSWIIAPKEYEAYECKGGCFFPLADDVTPTKHAIVQTLVHLKFPTKVGKACCVPTKLSPISVLYKDDMGVPTLKYHYEGMSVAECGCR
notes: source: generated in house
As to B2, the Kd came to 0.0933 nM in experiment [2], 1.36 nM in experiment [5], 2.3 nM in experiment [3] and 1.76 nM in experiment [4]. For the same molecule, the koff in experiment [2] is 0.0011 s⁻¹; in experiment [5], over 0.01 s⁻¹; in experiment [3] it was over 0.01 s⁻¹; in experiment [4] it was over 0.01 s⁻¹. Further, the kon in experiment [2] worked out at 1.24e+07 M⁻¹ s⁻¹; in experiment [5] it was 8.9e+06 M⁻¹ s⁻¹; in experiment [3], 7.1e+06 M⁻¹ s⁻¹; in experiment [4] it was 9.7e+06 M⁻¹ s⁻¹.

B3: GDF11 (ligand, human, UniProt O95390 299-407, looked up)
chain: NLGLDCDEHSSESRCCRYPLTVDFEAFGWDWIIAPKRYKANYCSGQCEYMFMQKYPHTHLVQQANPRGSAGPCCTPTKMSPINMLYFNDKQQIIYGKIPGMVVDRCGCS
notes: source: generated in house
Take B3: the Kd in experiment [1] was found to be 0.0108 nM; in experiment [2] it was 0.0039 nM; in experiment [6] it was 0.0474 nM; in experiment [7], 0.0485 nM. In addition, the koff in experiment [1] worked out at 0.000164 s⁻¹; in experiment [2] it was 7.56e-05 s⁻¹; in experiment [6] it was 0.000642 s⁻¹; in experiment [7], 0.000641 s⁻¹. Further, the kon in experiment [1] amounted to 1.52e+07 M⁻¹ s⁻¹; in experiment [2], 1.94e+07 M⁻¹ s⁻¹; in experiment [6], 1.35e+07 M⁻¹ s⁻¹; in experiment [7] it was 1.32e+07 M⁻¹ s⁻¹.
Regarding B4, the Kd amounted to 0.758 nM in experiment [1], 0.715 nM in experiment [6] and 0.046 nM in experiment [7]. Further, the koff amounted to 0.00573 s⁻¹ in experiment [1], 0.00424 s⁻¹ in experiment [6] and 0.000214 s⁻¹ in experiment [7]. The kon in experiment [1] was determined as 7.6e+06 M⁻¹ s⁻¹; in experiment [6], 5.9e+06 M⁻¹ s⁻¹; in experiment [7], 4.6e+06 M⁻¹ s⁻¹.

B5: ALK3-Fc:ALK3-Fc homodimer (human ALK3 ECD fused to human IgG1 Fc) (Fc fusion, UniProt P36894 24-152, looked up)
chain: QNLDSMLHGTGMKSDSDQKKSENGVTLAPEDTLPFLKCYCSGHCPDDAINNTCITNGHCFAIIEEDDQGETTLASGCMKYEGSDFQCKDSPKAQLRRTIECCRTNLCNQYLQPTLPPVVIGPFFDGSIR
notes: not shown: Fc (human IgG1), C-terminal, kept
For B5, in the experiment with BMP6, the Kd was 9.03 nM, the koff came to 0.00569 s⁻¹ and the kon was 600000 M⁻¹ s⁻¹.

B6: BMP10 (ligand, human, UniProt O95393 317-424, looked up)
chain: NAKGNYCKRTPLYIDFKEIGWDSWIIAPPGYEAYECRGVCNYPLAEHLTPTKHAIIQALVHLKNSQKASKACCVPTKLEPISILYLDKGVVTYKFKYEGMAVSECGCR
notes: source: bought: R&D Systems
As to B6, the Kd was determined as 0.067 nM in experiment [1], 0.0065 nM in experiment [2], 0.0706 nM in experiment [6] and 0.0335 nM in experiment [7]. Further, the dissociation rate constant (koff) in experiment [1] came to 0.0028 s⁻¹; in experiment [2], 0.000121 s⁻¹; in experiment [6] it was 0.00314 s⁻¹; in experiment [7], 0.000719 s⁻¹. Moreover, the kon is 4.18e+07 M⁻¹ s⁻¹ in experiment [1], 1.86e+07 M⁻¹ s⁻¹ in experiment [2], 4.45e+07 M⁻¹ s⁻¹ in experiment [6] and 2.15e+07 M⁻¹ s⁻¹ in experiment [7].

B7: BMP7 (ligand, human, UniProt P18075 293-431, looked up)
chain: STGSKQRSQNRSKTPKNQEALRMANVAENSSSDQRQACKKHELYVSFRDLGWQDWIIAPEGYAAYYCEGECAFPLNSYMNATNHAIVQTLVHFINPETVPKPCCAPTQLNAISVLYFDDSSNVILKKYRNMVVRACGCH
notes: source: bought: R&D Systems
Consider B7, for which, in experiment [7], the Kd was found to be 0.165 nM, the koff is 0.00197 s⁻¹ and the kon was found to be 1.19e+07 M⁻¹ s⁻¹. Moreover, in experiment [5], the Kd is over 10 nM, the koff was over 0.01 s⁻¹ and the kon is 800000 M⁻¹ s⁻¹. In experiment [3], this molecule gave a Kd of over 10 nM, a koff of over 0.01 s⁻¹ and a kon of 700000 M⁻¹ s⁻¹.

B8: GDF3 (ligand, human, UniProt Q9NR23 251-364, looked up)
chain: AAIPVPKLSCKNLCHRHQLFINFRDLGWHKWIIAPKGFMANYCHGECPFSLTISLNSSNYAFMQALMHAVDPEIPQAVCIPTKLSPISMLYQDNNDNVILRHYEDMVVDECGCG
notes: source: bought: R&D Systems
On to B8, for which the Kd is 0.64 nM in experiment [2], over 10 nM in experiment [5], over 10 nM in experiment [3] and over 10 nM in experiment [4]. Also, the koff in experiment [2] was 0.00188 s⁻¹; in experiment [5] it was over 0.01 s⁻¹; in experiment [3], over 0.01 s⁻¹; in experiment [4] it was over 0.01 s⁻¹. Besides, the kon in experiment [2] was determined as 2.9e+06 M⁻¹ s⁻¹; in experiment [5] it was 1.1e+06 M⁻¹ s⁻¹; in experiment [3], 1.1e+06 M⁻¹ s⁻¹; in experiment [4] it was 900000 M⁻¹ s⁻¹.

B9: BMP4 (ligand, human, UniProt P12644 293-408, looked up)
chain: SPKHHSQRARKKNKNCRRHSLYVDFSDVGWNDWIVAPPGYQAFYCHGDCPFPLADHLNSTNHAIVQTLVNSVNSSIPKACCVPTELSAISMLYLDEYDKVVLKNYQEMVVEGCGCR
notes: source: bought: R&D Systems
Turning to B9, the figures for the Kd in experiment [2] and in experiment [7] were 5.43 nM and 0.0041 nM, respectively.

B10: activin B (ligand, human, UniProt P09529 293-407, looked up)
chain: GLECDGRTNLCCRQQFFIDFRLIGWNDWIIAPTGYYGNYCEGSCPAYLAGVPGSASSFHTAVVNQYRMRGLNPGTVNSCCIPTKLSTMSMLYFDDEYNIVKRDVPNMIVEECGCA
notes: source: generated in house
In the case of B10, the Kd in experiment [1] stood at 0.0153 nM; in experiment [2] it was 0.0038 nM; in experiment [6], 0.0153 nM; in experiment [7] it was 0.0696 nM. Also, the koff in experiment [1] was determined as 8.07e-05 s⁻¹; in experiment [2], 2.19e-05 s⁻¹; in experiment [6], 0.000114 s⁻¹; in experiment [7], 0.000335 s⁻¹. Besides, the kon turned out to be 5.3e+06 M⁻¹ s⁻¹ in experiment [1], 5.7e+06 M⁻¹ s⁻¹ in experiment [2], 7.4e+06 M⁻¹ s⁻¹ in experiment [6] and 4.8e+06 M⁻¹ s⁻¹ in experiment [7].

One may read the koff as the first-order rate constant of dissociation. A higher koff goes with fast dissociation. By kon is commonly meant the rate constant with which the complex forms. A low value points to slow association.
